Laboratory results reported in a protein production outcome set (Wang et al. 2014).

Assay: label from the status in PepcDB records
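Also: failed if final PepcDB status was selected cloned or expressed and not failed if soluble or beyond.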

Row | Sequence | protein production
1 | MVSLTKRCIAEFIGTFILVFFGAGSAAVTLMIASGGTSPNPFNIGIGLLGGLGDWVAIGLAFGFAIAASIYALGNISGCHINPAVTIGLWSVKKFPGREVVPYIIAQLLGAAFGSFIFLQCAGIGAATVGGLGATAPFPGISYWQAMLAEVVGTFLLMITIMGIAVDERAPKGFAGIIIGLTVAGIITTLGNISGSSLNPARTFGPYLNDMIFAGTDLWNYYSIYVIGPIVGAVLAALTYQYLTSE | not failed
2 | MVSLTMVPIDALLSKEVNAFIVQHKHASVAELMLRMPVFTVDSRWIAAQIEGWQKASQKLPLWASTENIIYPIRLSMEQCSSERTAHYKSTLMSGERLVDLTGGFGVDSFYLSKSFNEVIYIEQQEDLAEIAAHNFSTLNQNNIVVKTADSDEYLKDIAEKIDVIFLDPARRKEMRKVYKLSDCEPNVVALQSFYFSKADVILIKTSPMLDITEATRQLTGIKEIHVVSVDNECKEVLYLLEKNYSGKATYICAHDYKKQLQLFSFTIAAEQAVTLSYSAPLAYLYEPNPSILKAGGFNSITQKYEVFKLHASSHLYTSASEVSDFPGRTFKIKETVGYSKKDIQAAVPGGKANIQTRNFPDSVEAIRKKTGLKDGGNIFIFATTLHDLSKVLLICEKI | failed
3 | MVSMLTRIRRQIKRVIEPLAKTLAQLKVSANFITMLGLIFAIVYYFEIMRSNTTLGIIFLVFSALMDAIDGEVARVSKTVSPLGSFLDSTLDRIEDILYISAFIFLGFSSYLVAIAVGLSLTISYIRAKAESLGLKMEGRGIIERGERIIFVFVILLLYIIVSKQVSLYLFYLFMLLTAITVIQRFYAVYSLLRK | failed
4 | MVSNQRVRLFMLCFCLVNNAVIAATEDENVERKPYIVYMGEATENSLVEAAENHHNLLMTVIGDESKARELKIYSYGKNINGFVARLFPHEAEKLSREEGVVSVFKNTQRQLHTTRSWDFLGLVESKYKRSVGIESNIIVGVLDTGIDVESPSFNDKGVGPPPAKWKGKCVTGNNFTRCNNKVIGAKYFHIQSEGLPDGEGDTAADHDGHGTHTSSTIAGVSVSSASLFGIANGTARGGVPSARIAAYKVCWDSGCTDMDMLAAFDEAISDGVDIISISIGGASLPFFEDPIAIGAFHAMKRGILTTCSAGNNGPGLFTVSNLAPWVMTVAANSLDRKFETVVKLGNGLTASGISLNGFNPRKKMYPLTSGSLASNLSAGGYGEPSTCEPGTLGEDKVMGKVVYCEAGREEGGNGGQGQDHVVRSLKGAGVIVQLLEPTDMATSTLIAGSYVFFEDGTKITEYINSTKNPQAVIFKTKTTKMLAPSISSFSARGPQRISPNILKPDISAPGLNILAAYSKLASVTGYPDDNRRTLFSIMSGTSMACPHAAAAAAYVKSFHPDWSPAAIKSALMTTATPMRIKGNEAELSYGSGQINPRRAIHPGLVYDITEDAYLRFLCKEGYNSTSIGLLTGDNSNNTTKKEYNCENIKRGLGSDGLNYPSLHKQVNSTEAKVSEVFYRTVTNVGYGPSTYVARVWAPKGLRVEVVPKVMSFERPKEKRNFKVVIDGVWDETMKGIVSASVEWDDSRGHLVRSPILLFRSDNDYR | failed
5 | MVSPKKESKSMKILKNLALPIAMALGVLAWPILSPLSFLIPYMIFLMLFFTFLKISPRDMHFSRLHLLLALIQITLAIGGFFAFRLLDPIVAEGVMICFICPAATASSVIIGMLGGNIAFGATYVLLTHMGVAVLGPLLFSSLSTAHADMPFWSSVIHILWGVLPLVVVPLLAAWIIRFTSPRTHARLLRIPQMAFWLWVTSLAIIMAKTTGYVMAQGSDSIRLELLLALGGLLSCLLQFGLGKWLSKRYLKESITAGQALGQKNTSLAIWMSLTYLNPIASIAPASYVVWQNSLNSIQIWLYDKRKNKTDRQ | failed
6 | MVSRRLQDSANRLFGKAATFIENGKYDRALESLKDVDKIMKKEKDPEISFHTLFLKGYTISKAGDPEGALEFYGEALKIIEPLFSGEPGKKNYQKFISNMIEEIGSSFDELNDEERAEELLGPMEKQFEKVVRTFEELVKSDPENQEYLSGFLEIIGSMGVCYQAGQLMDQAVKLFDKKIDIYEKLFELESGETDLLGDFDEDIELYGYLFRNYGHLKEAEGNYFRAAGIYRKMIEKDPENSMAEYYLSYTYSYHGSLYSGMENLEKAERYYEEAVELMDKGYKEFPEDYAYAVSLANIHESYGVAFSNRKYLEKSIANYTKAREIYRDLIINHPSEFARNKKIAMYLDDLGDRFSKIGEFEAAELCYKDKLDVFRNLHDEDPEDLNPIFEISDTYEELGDIFAEHGETGKAKAYYEKEIEIYESLLETEPDALDYKTYMAEVQATIGKLYLDEEPEKAQKYFEDALSVLENNFELEPEMDIHYSVLKKVLNNFIQLFKNQEEHEKAAEMYSKLLAVQQRMLDLNPEEREYKEDLAVTYTNLALLHSERGDIEQEARYHRLALDIHEKILEESSDYPLFLQRFVTGIYLLGSRLKLDEESRGKESGIVKEYLELAKKAENKLYAVKPEIMEDKELIAEIAEKMGISFRENEMYEEAIEEFKRSLAIREKLHEKNPENLNYLTVLEGIFHQMGITFLAQKDLEKAKETLEKAMDLNAKLLETDPEDFNYLARSSMIFETYSSVLENMGKSEEAAKYLAKAEEINAKLGYSNE | failed
7 | MVSRTGRTHLPLVDSLKEKLPYILCGLLALAGVLLVWSLGSTFLPVLLALILAYVLNPLVTWLEARRVPRVAAVLLVMALIVVVTAGAVTFFAVSIQKEVARVEINLPAYATRLYDLIPGQAKAYLEIETPDKLYARIDSLVDELRGASFDLVKGALGVVQRAFSSTLGFLLTVAGYFITPVYLYYFLADLPRLRDGIMALVPGRARDRAAMLGSEIDGVLSGFVRGQLAVCAILAVLYSIGLVMIGIDLAIVIGSLSGFLFIIPYVGTVFGIVVSMIMAFLKFHDMLHPLLCLGWFAIVQAIEGALITPAVVGNTVGLHPVVAILALFIGGQWFGIFGMLLAVPVAAVIKVLLRHGVEWYRATPFFERP | failed
8 | MVSSAIVLGLTAATVLVFTGIGLFAARGRIDSVETYISARDSAGSGTLAATVIASMMGVWILLSPAEAGAAFGGLPAVLGYAIGSAIPLLLFIPVGARIREVMPAGHSLTEFAYARFGSGMYLLVLLVSVFYMFIFLAAEMTGIAGALALVADVPLWQTSLLIGGFVLVYTAYGGLLASIVTDTVQTLVILPLLAVGFGGALLSLGGTSEFHATVVSADPTLLDPGFGPGLEFGLYVAFALLGANMLNQGVWQRVYAADGDGALRRGMGIAAVVVVPMLLLSGLFGIAAAGLGLTESGSASIAFFLVVAEAFPTWVTLAVVVLAVLLVMSSADTMFNAIASVVTADLARLLDDPDQRTLWLGGRGLTVAVALAAMFIGAQGYSVLQLFLTADLLAAGVFVPFLAGLYTERLTGPGALVSGIAGLLVGFTYFPSLRGLMAAIPGVGSMLPAPSFLIAFAGATLVSAALTAVATLLGGADADLDSLGREVRALDDPVADGGSEQ | failed
9 | MVSSSNNSSIAKAFVTVAAIFIIFAGIKTAANILVPFLLSVFIAIICNPLINKASEYKIPKAVSVIFVIVVFVTMAVFLTGLVGSSLNELSQQIPQYRIQLKEQFTWLTSFLNSHDIQLSSSIVTEYFDPAAAMGLAADMLSSFGSVMTNLFLIILTVVFMLFESSTIPHKLHLALDDPQMRLNQIERFLSSVNQYIAIKTLVSIATGCIVSLMLWIFGLDFFLLWGVLAFLLNYIPNIGSIIAAVPPMTLAILQLSIGEAGAIGLGFVLINMVMGNIIEPRYLGKGLGLSTLVVFLSLIFWGWLLGTVGMLLSVPLTMILKIGLESSPEGRWLAVMLSDEVELVDKTEQALLD | failed
10 | MVSTLGSDTFTSISAHDLHGKLGNIHLIDVRENDDFKEGHIPTSRNIPMDILLKEPEKYINKTDEYYIVCQAGVKSEKTCKELWSKGYKVINIKDGTDSYKQPLER | failed
11 | MVSVNSSHCFYNDSFKYTLYGCMFSMVFVLGLISNCVAIYIFICVLKVRNETTTYMINLAMSDLLFVFTLPFRIFYFTTRNWPFGDLLCKISVMLFYTNMYGSILFLTCISVDRFLAIVYPFKSKTLRTKRNAKIVCTGVWLTVIGGSAPAVFVQSTHSQGNNASEACFENFPEATWKTYLSRIVIFIEIVGFFIPLILNVTCSSMVLKTLTKPVTLSRSKINKTKVLKMIFVHLIIFCFCFVPYNINLILYSLVRTQTFVNCSVVAAVRTMYPITLCIAVSNCCFDPIVYYFTSDTIQNSIKMKNWSVRRSDFRFSEVHGAENFIQHNLQTLKSKIFDNESAA | failed
12 | MVTKILKAPDGSPSDVERIKKESDYLRGTLKEVMLDRISAGIPDDDNRLMKHHGSYLQDDRDLRNERQKQKLEPAYQFMLRVRMPGGVSTPEQWLVMDDLSQKYGNGTLKLTTRETFQMHGILKWNMKKTIQTIHSALLDTIAACGDVNRNVMCASNPYQSEIHSEVYEWSKKLSDDLLPRTRAYHEIWLDEERVAGTPEEEVEPMYGPLYLPRKFKIGIAVPPSNDIDVFSQDLGFIAIVEDGKLIGFNVAIGGGMGMTHGDTATYPQLAKVIGFCRPEQMYDVAEKTITIQRDYGNRSVRKNARFKYTVDRLGLENVKEELENRLGWSLEEAKPYHFDHNGDRYGWVEGIEDKWHFTLFVEGGRITDYDDYKLMTGLREIAKVHTGEFRLTANQNLMIANVSSDKKEEISALIEQYGLTDGKHYSALRRSSMACVALPTCGLAMAEAERYLPTLLDKIEEIIDENGLRDQEITIRMTGCPNGCARHALGEIGFIGKAPGKYNMYLGAAFDGSRLSKMYRENIGEADILSELRILLSRYAKEREEGEHFGDFVIRAGIIKATTDGTNFHD | failed
13 | MVVKFTKSEALHKEALEHIVGGVNSPSRSFKAVGGGAPIAMERGKGAYFWDVDGNKYIDYLAAYGPIITGHAHPHITKAITTAAENGVLYGTPTALEVKFAKMLKEAMPALDKVRFVNSGTEAVMTTIRVARAYTGRTKIMKFAGCYHGHSDLVLVAAGSGPSTLGTPDSAGVPQSIAQEVITVPFNNVETLKEALDKWGHEVAAILVEPIVGNFGIVEPKPGFLEKVNELVHEAGALVIYDEVITAFRFMYGGAQDLLGVTPDLTALGKVIGGGLPIGAYGGKKEIMEQVAPLGPAYQAGTMAGNPASMASGIACLEVLQQEGLYEKLDELGAMLEKGILEQAAKHNIDITLNRLKGALTVYFTTNTIEDYDAAQDTDGEMFGKFFKLMLQEGVNLAPSKYEAWFLTTEHTKEDIEYTIEAVGRAFAALADNK | not failed
14 | MVVKVINKKQDKFYFKLGMFILIFLILGVSLLNIIGINVDKTYENGNGMYAHIVDYSLPWVKVANNKNTSENTYSIKNIILSAAGLDINKPENVISKEVSFLGEALPKSIKSECPNESFTLDDKDVVKSTSGSVQNEPLKNINENIYDPKLKKALDKSKPEILIYHSHTTEAYKPYPADSLNSTQNVCAVGDELVKELGEKYGIYAINDKTVHNVVDYNKSYTRSGETLDKYLKQYGDFKMIIDMHRDSDVPKSKVTARINGEDVAKFMFVMTRKNPHFDKNMALVNGLVSICNKDFPGIFNGIYYYDYGINYYNQQKSNNAFLLEVGSDINTIDEAKGTSKYLARIIAEYLNGKK | failed
15 | MVVMYFLFPETTNVVIVSALNFAALFLSFFTHYTSSRKDEDLTILAFSCLFSSLLSLFFLRIFLMNPKNAWMFLSSSKLILAEGFFFFLIGKKKNSFKWLVVLTFVILFAVSVLRFDFTLHLESVSLALFSLLLLIRKPQTTLLSVSLFLYSISSIFFYFFRSAYPYHVASGSIFLMWHFVKKYVETPKEEAEKLSKELEIPPERISSAVTNLYNFLIEILRIIPEILREDDQNRVREMLSKYFSQEVSSYFPKLRDAFSKFAEEYISFLEEKQKFQDMYVVLTKNLAHNLKNPVNAIYVSAQLLKQQFPETSPVVRNIEKLCHEMTEEIERILKTSIGRSEVLRKNDVEKALEPILETARLKNLETDIEMEFDELEIDKDAFLALVLNLFSNAVKYTPSGRVVLKIEKKNDKINLRVSDTGPGLKEQNGFGLFTVKKLVNYLNGSMEVIKKDGTTFVITLPLRRDKNDSTDRGR | failed
